The source of these data is paper PMC11266573.

By Kd is commonly meant the concentration at which binding is half-saturated.

Experiment [1] concerns the target H2AK119ub1-modified nucleosome core particle (NCP) (Xenopus | not stated) (UniProt P0CG47). The experiment can be described thus: BLI; biotin-labeled nucleosomes immobilised on streptavidin (SA) XT biosensors (Gator), protein in solution; 30 °C, 1000 rpm; 20 mM Tris-HCl pH 7.5, 50 mM NaCl, 1 mM DTT, 0.01% Tween-20; 3 min association, 6 min dissociation. Background: Biolayer interferometry detects binding as a change in optical thickness at a sensor tip.

Experiment [2] has the same target. Briefly: BLI; competition: DNMT3A1 UDR loaded to biosensors pre-loaded with H2AK119ub1-modified NCP and various concentrations of tag-free JARID2(1-60).

The substance “GST-tagged N-terminal segment of JARID2 (residues 1–60) (from UniProt Q92833 1-60) (domain or fragment)” registered a Kd in experiment [1] of 250 nM.
Regarding “tag-free JARID2 N-terminal segment (residues 1–60) (from UniProt Q92833 1-60) (domain or fragment)”, in experiment [2], the percent decrease of the DNMT3A1 UDR association response at a JARID2(1-60):DNMT3A1 UDR molar ratio of 32:1 came to 40%.
